# According to the supplement of paper PMC11865577:
# Legend:
# Assay in all cases: pull-down binding Z-score (relative to library population); higher = stronger binding
# [1] = system: TO-3-N3 (biotin conjugate); conditions: RNA library: Library-2
# How it was run: (§1)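 Streptavidin beads bearing 100 pmol of a biotin-conjugated small molecule were incubated for 60 min at 25 °C with 1 μg of heat-folded, Cy5- or Cy3-end-labelled RNA library in phosphate/NaCl/KCl buffer. Hot SDS eluted the RNA that stayed bound after three washes, and this RNA was hybridised for 20 h at 55.5 °C to a DNA barcode microarray. Binding was expressed as a Z-score against the library mean and standard deviation, after subtraction of a beads-only signal and trimmed averaging of barcoded replicate probes.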
# [2] = system: G-clamp-N3 (biotin conjugate); conditions: RNA library: Library-1 (pre-miRNA loops + repeats)
# How it was run: as §1
# [3] = system: TO-3-N3-2 (biotin conjugate); conditions: RNA library: Library-2
# How it was run: as §1
# TO-N3 (biotin conjugate) = conditions: RNA library: Library-2
# How it was run: as §1
# [4] = system: TO-N3-2 (biotin conjugate); conditions: RNA library: Library-2
# How it was run: as §1
Sequence,pull-down binding Z-score [1],pull-down binding Z-score [2],pull-down binding Z-score [3],pull-down binding Z-score (TO-N3 (biotin conjugate)),pull-down binding Z-score [4]
AAAACUUUCAUCCAAGUCAUU [hsa-mir-378d-2],0.382,-0.902,-0.238,0.164,-0.609
AAAAUGUUUGUCAUAAACCGUUUU [hsa-mir-335],-0.185,-0.914,-0.302,-0.158,-0.934
AAAAUUACUUUUGGUAAAUACAGUUUU [hsa-mir-559],-0.101,-0.546,0.00825,-0.344,-1.04
AAAAUUCAUGGCCUACAGCUGCCUCUUGCCAAACUGCACUGGAUUUU [hsa-mir-5010],-0.25,-1.45,-0.176,-0.482,0.111
AAACGUGCUCAGUGUCUUUAUAACAGGAAAGCCGUAAAC [hsa-mir-1272],0.0446,-0.626,0.284,0.528,0.894
AAAGAGGUGUUUCUACUCCAU [hsa-mir-3690-1_3690-2],-0.497,-1.18,-0.0114,-0.517,-0.235
AAAGCCAGGGACCCUGAGAGGCUUU [hsa-mir-6885],0.0246,3.29,0.0899,0.556,1.24
AAAUAAAAGAUGGAGUCGUUUGACGUCUUUUAACACCCUUU [hsa-mir-8055],-0.623,-0.175,-0.1,-0.706,-0.866
AAAUAAGAGGCUAGGAUUGCCUCUUAUUU [hsa-mir-3201],-0.688,0.838,-0.362,-1.18,-1.57
AAAUAAGCUCCAUAUCAAUGAGAAUUUCAAUGGGAUUAUGUG [hsa-mir-4791],-0.569,-1.06,-0.0328,-0.415,0.0926
AAAUAGUUUCUAUCAAAAUAGUUU [hsa-mir-3668],-0.791,-1.13,-0.362,-0.931,-1.14
AAAUCCCGUUAAUAAGUAAGAGGAUUU [hsa-mir-2113],0.503,0.525,0.143,0.817,0.758
AAAUCCGUGUUUGGACGCUUCUGGUA [hsa-mir-3936],0.678,-0.453,0.653,0.923,0.681
AAAUGAGAGUUAGCCAGGAGCUUUGCAUACUCA [hsa-mir-6801],-0.384,-1.22,-0.0024,-0.00733,0.66
AAAUUGCAGACACUAGGACCAUGUCUUGGUUUUUGCAAUAAUG [hsa-mir-1248],-0.228,0.0385,-0.133,-0.189,-0.641
AACAACAGCAUCAGAAGCAACAUCAGCUUUAGUU [hsa-mir-569],0.728,-1.03,0.364,0.9,1
AACACCCAUCCCAGGAUUGCUGAUGGGUGUU [hsa-mir-5705],-0.618,-0.7,-0.428,-0.668,-0.282
AACAGCAGGAUUGGCUGUAGCUGUU [hsa-mir-2117],0.357,0.593,-0.324,0.185,0.369
AACAGCUUUGCGAAGUGUUGUU [hsa-mir-4425],0.104,-0.651,-0.137,-0.113,-0.553
AACAGGACCUGUGCUCACUGGGGCCUGCA [hsa-mir-6797],0.406,-0.344,0.298,1.02,1.55
AACAUACAUUUGUCUUGGUGUGUU [hsa-mir-4684],-1.01,3.35,-0.744,-1.44,-1.35
CACGGUGUCUGCGGGAGGAGACCAUG [hsa-mir-4757],0.515,-0.814,,0.828,0.821
CACGUGCUGCUUGUAUAGACAUGAG [hsa-mir-3659],0.88,0.468,,1.11,0.528

Sequence,pull-down binding Z-score [1],pull-down binding Z-score [2],pull-down binding Z-score [3],pull-down binding Z-score (TO-N3 (biotin conjugate)),pull-down binding Z-score [4]
CGCCCGACUUCGGGG [hsa-mir-4767],-0.34,0.767,,-0.314,0.0319
GACAUUGCCAGAGGAUGGGCAGCAGAC [hsa-mir-6855],,2,0.334,0.788,1.17
GGACCAGCCCAAAGGCCAGGCCUGACCC [hsa-mir-4780],0.125,-0.253,0.11,,1.62
GUACUGGGUCUCUCUGGUUAGACCAGAUCUGAGCCUGGGAGCUCUCUGGCUAACUAGGGAACCCACUGC [HIV_2014_Siegfried_nucs_8982_9173_4],,0.055,,,
GUCUCUCUGGUUAGACCAGAUCUGAGCCUGGGAGCUCUCUGGCUAACUAGGGAAC [HIV_2014_Siegfried_nucs_1_753_1],,-0.404,,,
GUGGAAGUGCCCACUGGUUCCA [hsa-mir-194-2],0.425,-0.472,0.341,,1.32
UCAUUUUCCUUAAAAAAUGA [hsa-mir-3128],-0.529,-1.07,-0.469,-1.09,
UGGGGUUGGGGUUGGGGUUGGGGUUGGGGUUGGGGU [G4_(UGGGGU)6],,1.14,,,
UGGGGUUGGGGUUGGGGUUGGGGUUGGGGUUGGGGUUGGGGUUGGGGU [G4_(UGGGGU)8],,1.45,,,
UGGGUUGGGUUGGGUUGGGUUGGGUUGGGU [G4_(UGGGU)6],,1.62,,,
UGGGUUGGGUUGGGUUGGGUUGGGUUGGGUUGGGUUGGGU [G4_(UGGGU)8],,0.596,,,
UGGUUGGUUGGUUGGUUGGUUGGU [G4_(UGGU)6],,1.53,,,
UGGUUGGUUGGUUGGUUGGUUGGUUGGUUGGU [G4_(UGGU)8],,0.443,,,
UGUCUUUCGAUCAAAACCUGGAUUAUCAAAUAGGAUACAUCUGCAGUGGGGUUUUCGGUGACAACCCGCGUCCCGAAGAUGGAACAGGCA,-0.887,,-0.424,-0.552,0.432
UGUGACCUUCAAAAUUAUGGUGAUAGUGCAACAUUACCUAAAGGCAUAAUGAUGAAUGUCGCA,-0.431,,-0.486,-0.621,-1.05
UGUGACUGGACA [SHAPE_invivo_SARS-CoV-2_Motif_313],0.86,,-0.233,0.774,-0.14
UGUGAUUUUAAUAGCUUCUUAGGAGAAUGACA [SHAPE_invivo_SARS-CoV-2_Motif_573],-0.571,,-0.182,-0.641,-0.333
UGUGCUUGUGAAAUUGUCGGUGGACAAAUUGUCACCUGUGCA,-0.722,,-0.27,-0.833,-0.816
UGUGGAAAGGGCUAUCAUCUUAUGUCCUUCCCUCA [DMSMaPseq_invitro_SARS-CoV-2_Motif_440],-0.089,,-0.0817,-0.154,-0.837
UGUGGACAAGGGCCUUGUCUUAGACAGUCACU [hsa-mir-4318],0.603,-0.432,0.359,0.983,
UGUGGACAUGUCAAUGACAUAUGGACAACAGUUUGGUCCAACUUAUUUGGAUGGAGCUGAUGUUACUAAAAUAAAACCUCAUAAUUCACA,-0.618,,-0.162,-0.544,-0.453
UGUGGUAAACAAGCUACA,-0.644,,-0.468,-0.766,-0.906
UGUGUACACACA [SHAPE_invivo_SARS-CoV-2_Motif_249],0.252,,-0.496,0.0581,-0.584

Sequence,pull-down binding Z-score [1],pull-down binding Z-score [2],pull-down binding Z-score [3],pull-down binding Z-score (TO-N3 (biotin conjugate)),pull-down binding Z-score [4]
UGUGUCAAUAUUUAAACACA,0.372,,-0.00504,0.135,-0.99
UGUGUGAUAUCAGACA,-0.5,,-0.703,-0.639,-0.597
UGUUACUUUAUAUUGACAUUAAUGGCAAUCUUCAUCCAGAUUCUGCCACUCUUGUUAGUGACA,-0.354,,-0.104,-0.585,-0.868
UGUUCACGUGGAGAGGAGUUAAACA [hsa-mir-499b],0.0485,0.339,0.375,0.423,
UGUUGCUUAUGAAAGUUUACGCCCUGACACACGUUAUGUGCUCAUGGAUGGCUCUAUUAUUCAAUUUCCUAACACCUACCUUGAAGGUUCUGUUAGAGUGGUAACA [SHAPE_invitro_SARS-CoV-2_Multi_27_ComplexLevel_1],-0.56,,0.0467,-0.452,0.0671
UGUUGGCAUCAUUCUAUUGGAUUUGAUUACGUCUAUAAUCCGUUUAUGAUUGAUGUUCAACA,-0.515,,-0.183,-0.712,-0.625
UGUUGUAAAUAAGGGACACUUUGAUGGACAACA [DMSMaPseq_invitro_SARS-CoV-2_Motif_348],-0.73,,-0.178,-0.488,0.325
UGUUGUAACAACA,-0.671,,-0.596,-0.992,-1.35
UGUUUUCUACAAAGAAAACA [SHAPE_invivo_SARS-CoV-2_Motif_122],-0.462,,-0.34,-0.865,-1.85
UUAAAAUAUGACUUCACGGAAGAGAGGUUAAAACUCUUUGACCGUUAUUUUAA [DMSMaPseq_invitro_SARS-CoV-2_Motif_258],0.0656,,0.159,-0.184,-0.898
UUAAACACGCUUGUUAAACAACUUAGCUCCAAUUUUGGUGCAAUUUCAAGUGUUUUAA [SHAPE_invivo_SARS-CoV-2_Motif_457],0.47,,-0.0371,0.301,-0.627
UUAACGUGAGUCUUGUAAAACCUUCUUUUUACGUUUACUCUCGUGUUAA [DMSMaPseq_invitro_SARS-CoV-2_Motif_474],-0.223,,-0.0657,-0.275,-1.02
UUAAGGUGUUUACAACAGUAGACAACAUUAA [DMSMaPseq_invitro_SARS-CoV-2_Motif_93],-1.01,,-0.382,-1.08,-1.08
UUAAGUGACACACUUAA,-0.711,,-0.663,-1.18,-1.49
UUAAUGCCUGUCUGUGUGGAAACUAAAGCCAUAGUUUCAACUAUACAGCGUAAAUAUAAGGGUAUUAA [DMSMaPseq_invitro_SARS-CoV-2_Motif_83],-0.287,,0.502,-0.439,-0.463
UUAAUGGAGUCACAUUAA [DMSMaPseq_invitro_SARS-CoV-2_Motif_357],0.485,,-0.347,0.273,-1
UUAAUUGAAUUGUGCGUGGAUGAGGCUGGUUCUAAAUCACCCAUUCAGUACAUCGAUAUCGGUAAUUAUACAGUUUCCUGUUUACCUUUUACAAUUAA [DMSMaPseq_invitro_SARS-CoV-2_Multi_84_ComplexLevel_1],-0.244,,0.0361,-0.239,-0.403
UUACACCACUGGGCAUUGAUUUAGAUGAGUGGAGUAUGGCUACAUACUACUUAUUUGAUGAGUCUGGUGAGUUUAA,-0.972,,-0.516,-1.09,-1.04
UUACAGAAGAGGUUGGCCACACAGAUCUAAUGGCUGCUUAUGUAG,-0.523,,-0.244,-0.376,-0.138
UUACAGAUCUUUACCAGGAGUUUUCUGUGGUGUAGAUGCUGUAA [SHAPE_invivo_SARS-CoV-2_Motif_187],-0.96,,-0.414,-1.21,-1
UUCAGUUUCCUUACUGGUAA [hsa-mir-302e],-0.394,-0.769,-0.353,,-0.299
UUUAUGUGAACUAAAAUAUAAA [hsa-mir-513c],-0.547,-1.49,-0.21,,-1
UUUGAAGUGUUCUAAAUGGUUCAAA [hsa-mir-424],-0.532,1.09,,-0.738,-1.05
